# B1: myelin basic protein (protein)
# chain: ASQKRPSQRHGSKYLATASTMDHARHGFLPRHRDTGILDSIGRFFGGDRGAPKRGSGKDSHHPARTAHYGSLPQKSHGRTQDENPVVHFFKNIVTPRTPPPSQGKGRGLSLSRFSWGAEGQRPGFGYGGRASDYKSAHKGFKGVDAQGTLSKIFKLGGRDSRSGSPMARR
# notes: myelin basic protein, major form about 18.5 Kd (170 residues); purified protein
# Molecular target: Aβ42WT (Homo sapiens, UniProt P05067)
# Assay: Circular dichroism spectroscopy of Aβ42WT β-sheet formation
# Assay type: biochemical
# Conditions: MBP added to incubates, 37° C.
# Excerpt: Aβ42 (□), MBP (□), Aβ42 with MBP (□).
# The formation of β-sheet fibrils may be evaluated by circular dichroism (“CD”) spectroscopy. The technique is based on circularly polarized light. The secondary structure of proteins tends to “distort” the polarization toward the elliptical. The degree and direction of the distortion over a range of wavelengths produces spectra that are characteristic of the protein under examination and its secondary structure. One such method, suitable for use in embodiments of the present invention, is summarized below:
# Preferably, purified protein is placed in detergent-free, low-salt buffer in a cuvette having a lightpath length on the order of 1 mm. The optimal concentration of the protein may be determined by standard techniques well-known in the art, and confirmed by comparing the spectrum over a range of concentrations, using an instrument (e.g., JASCO) and cuvette properly calibrated with a standard such as d-10-camphorsulfonic acid in water. To acquire a CD spectrum, the sample is scanned over a wavelength range of about 180-260 nm (spectral width approx. 1 nm). A suitable scan rate is of the order of 100 nm/min for a response time of about 2 seconds. Preferably, however, slower scan speeds (e.g., 5 nm/min, response time around 20 seconds) are used to reduce noise.
# Sequence of Aβ42WT (P05067 672-713 limits assumed): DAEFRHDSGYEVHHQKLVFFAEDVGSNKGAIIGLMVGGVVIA
molecule,measurement,value
B1,Aβ42WT fibril formation by circular dichroism,prevents fibril formation
